Assay [1] has as its target T1, human CD3 (TCR/CD3 complex on the cell surface) (human, UniProt P07766 23-207; P04234 22-171; P09693 23-182).
T1 construct: whole, on cells; Native CD3 on human Pan-T cells or Jurkat wild-type cells; also called CD3 on Pan-T cells; CD3 on Jurkat WT cells
Nature of the assay: flow cytometry, Jurkat WT cells, 10 ug/mL. For orientation: In flow cytometry, cells or beads pass a laser one at a time.

In assay [2] the target is T1, human CD3 (TCR/CD3 complex on the cell …). Nature of the assay: flow cytometry, Jurkat WT gMFI over Jurkat KO gMFI, 1 ug/mL.
The target is the same in assay [3]. Kind of assay: flow cytometry, Jurkat WT cells, 1 ug/mL.
The target is the same in assay [4]. Nature of the assay: flow cytometry, Pan-T cells, 1 ug/mL.
The target is the same in assay [5]. Kind of assay: flow cytometry, Pan-T cells, 10 ug/mL.
The target is the same in assay [6]. Kind of assay: flow cytometry, Jurkat WT gMFI over Jurkat KO gMFI, 10 ug/mL.

T1 sequence (P07766 23-207, chain 1 of 3): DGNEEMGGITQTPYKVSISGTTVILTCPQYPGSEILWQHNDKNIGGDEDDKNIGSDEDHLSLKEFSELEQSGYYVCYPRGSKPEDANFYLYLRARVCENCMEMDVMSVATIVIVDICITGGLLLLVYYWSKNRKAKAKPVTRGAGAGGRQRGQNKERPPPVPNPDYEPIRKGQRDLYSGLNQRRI
T1 sequence (P04234 22-171, chain 2 of 3): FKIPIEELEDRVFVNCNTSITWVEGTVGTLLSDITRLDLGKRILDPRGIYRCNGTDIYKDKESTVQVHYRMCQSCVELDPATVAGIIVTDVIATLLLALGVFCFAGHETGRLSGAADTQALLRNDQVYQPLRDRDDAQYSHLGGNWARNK
T1 sequence (P09693 23-182, chain 3 of 3): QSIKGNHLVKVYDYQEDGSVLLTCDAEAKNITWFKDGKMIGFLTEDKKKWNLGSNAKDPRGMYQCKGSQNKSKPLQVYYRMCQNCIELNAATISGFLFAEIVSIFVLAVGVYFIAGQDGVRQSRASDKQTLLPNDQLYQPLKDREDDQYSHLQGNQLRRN

B1: CD3 × CD33-BspAb93 (bispecific antibody)
chain 1: NFMLTQPHSVSESPGKTVTISCTRSSGSIASKYVQWYQQRPGSSPTTVIYEDNQRPSGVPDRFSGSIDSSSNSASLTISGLKTEDEADYYCQSYYSNNRVFGCGTKLTVLGGGGSGGGGSGGGGSGGGGSEVQLVESGGGLVQPGGSLRLSCAASGFTFSRYSMNWVRQAPGKCLEWVSYISRSSTTIYYADSVKGRFTISRDNAKNSLYLQMNSLRDEDAAVYYCARERWELLYFDYWGQGTLVTVSSDKTHTCPPCPAPEFEGGPSVFLFPPKPKDTLMISRTPEVTCVVVDVSHEDPEVKFNWYVDGVEVHNAKTKPREEQYNSTYRVVSVLTVLHQDWLNGKEYKCKVSNKALPASIEKTISKAKGQPREPQVYTLPPCREEMTKNQVSLWCLVKGFYPSDIAVEWESNGQPENNYKTTPPVLDSDGSFFLYSKLTVDKSRWQQGNVFSCSVMHEALHNHYTQKSLSLSPGK
chain 2: EVQLVQSGAEVKKPGSSVKVSCKASGYTITDSNIHWVRQAPGQSLEWIGYIYPYNGGTDYNQKFKNRATLTVDNPTNTAYMELSSLRSEDTAFYYCVNGNPWLAYWGQGTLVTVSSASTKGPSVFPLAPSSKSTSGGTAALGCLVKDYFPEPVTVSWNSGALTSGVHTFPAVLQSSGLYSLSSVVTVPSSSLGTQTYICNVNHKPSNTKVDKRVEPKSCDKTHTCPPCPAPEFEGGPSVFLFPPKPKDTLMISRTPEVTCVVVDVSHEDPEVKFNWYVDGVEVHNAKTKPREEQYNSTYRVVSVLTVLHQDWLNGKEYKCKVSNKALPASIEKTISKAKGQPREPQVCTLPPSREEMTKNQVSLSCAVKGFYPSDIAVEWESNGQPENNYKTTPPVLDSDGSFFLVSKLTVDKSRWQQGNVFSCSVMHEALHNRFTQKSLSLSPGK
chain 3: DIQLTQSPSTLSASVGDRVTITCRASESLDNYGIRFLTWFQQKPGKAPKLLMYAASNQGSGVPSRFSGSGSGTEFTLTISSLQPDDFATYYCQQTKEVPWSFGQGTKVEVKRTVAAPSVFIFPPSDEQLKSGTASVVCLLNNFYPREAKVQWKVDNALQSGNSQESVTEQDSKDSTYSLSSTLTLSKADYEKHKVYACEVTHQGLSSPVTKSFNRGEC
Consider B1, for which the gMFI in assay [1] was 28400 gMFI; in assay [3] it was 16200 gMFI; in assay [4], 29600 gMFI; in assay [5], 135000 gMFI. In addition, the “Jurkat WT/KO (Fold)” value in assay [2] amounted to 5.6 fold; in assay [6] it was 9.5 fold. Moreover, the “% Positive” value in assay [4] was 98.2%; in assay [5], 99.8%.

B2: CD3 × CD33-BspAb94 (bispecific antibody)
chain 1: NFMLTQPHSVSESPGKTVTISCTRSSGSIASNYVQWYQQRPGSSPTTVIYEDNQRPSGVPDRFSGSIDSSSNSASLTISGLKTEDEADYYCQSYDSSNRVFGCGTKLTVLGGGGSGGGGSGGGGSGGGGSEVQLVESGGGLVKPGGSLRLSCAASGFTFSSYTMNWVRQAPGKCLEWVSSITTSSSYIYYADSVKGRFTISRDNAKNSLYLQMNSLRAEDTAVYYCARVTFDAFDIWGQGTMVTVSSDKTHTCPPCPAPEFEGGPSVFLFPPKPKDTLMISRTPEVTCVVVDVSHEDPEVKFNWYVDGVEVHNAKTKPREEQYNSTYRVVSVLTVLHQDWLNGKEYKCKVSNKALPASIEKTISKAKGQPREPQVYTLPPCREEMTKNQVSLWCLVKGFYPSDIAVEWESNGQPENNYKTTPPVLDSDGSFFLYSKLTVDKSRWQQGNVFSCSVMHEALHNHYTQKSLSLSPGK
chain 2: EVQLVQSGAEVKKPGSSVKVSCKASGYTITDSNIHWVRQAPGQSLEWIGYIYPYNGGTDYNQKFKNRATLTVDNPTNTAYMELSSLRSEDTAFYYCVNGNPWLAYWGQGTLVTVSSASTKGPSVFPLAPSSKSTSGGTAALGCLVKDYFPEPVTVSWNSGALTSGVHTFPAVLQSSGLYSLSSVVTVPSSSLGTQTYICNVNHKPSNTKVDKRVEPKSCDKTHTCPPCPAPEFEGGPSVFLFPPKPKDTLMISRTPEVTCVVVDVSHEDPEVKFNWYVDGVEVHNAKTKPREEQYNSTYRVVSVLTVLHQDWLNGKEYKCKVSNKALPASIEKTISKAKGQPREPQVCTLPPSREEMTKNQVSLSCAVKGFYPSDIAVEWESNGQPENNYKTTPPVLDSDGSFFLVSKLTVDKSRWQQGNVFSCSVMHEALHNRFTQKSLSLSPGK
chain 3: DIQLTQSPSTLSASVGDRVTITCRASESLDNYGIRFLTWFQQKPGKAPKLLMYAASNQGSGVPSRFSGSGSGTEFTLTISSLQPDDFATYYCQQTKEVPWSFGQGTKVEVKRTVAAPSVFIFPPSDEQLKSGTASVVCLLNNFYPREAKVQWKVDNALQSGNSQESVTEQDSKDSTYSLSSTLTLSKADYEKHKVYACEVTHQGLSSPVTKSFNRGEC
Regarding B2, the gMFI in assay [1] was 2190 gMFI; in assay [3], 1830 gMFI; in assay [4], 2050 gMFI; in assay [5], 2600 gMFI. Further, the “Jurkat WT/KO (Fold)” value came to 0.8 fold in assay [2] and 1.1 fold in assay [6]. For the same molecule, the “% Positive” value was determined as 2.6% in assay [4] and 4.4% in assay [5].

B3: CD3 × CD33-BspAb95 (bispecific antibody)
chain 1: NFMLTQPHSVSESPGKTVTISCTRSSGSIASNYVQWYQQRPGSSPTTVIYEDNQRSSGVPDRFSGSIDSSSNSASLTISGLKTEDEADYYCQSYDRSNRVFGCGTKLTVLGGGGSGGGGSGGGGSGGGGSEVQLVESGGGLVKPGGSLRLSCSASGFTFSTYTMNWVRQAPGKCLEWVSSISKSSSYIYYTDSVKGRFTISRDNAKNSLYLQMNSLRAEDTAVYYCARERRTLAFDIWGQGTMVTVSSDKTHTCPPCPAPEFEGGPSVFLFPPKPKDTLMISRTPEVTCVVVDVSHEDPEVKFNWYVDGVEVHNAKTKPREEQYNSTYRVVSVLTVLHQDWLNGKEYKCKVSNKALPASIEKTISKAKGQPREPQVYTLPPCREEMTKNQVSLWCLVKGFYPSDIAVEWESNGQPENNYKTTPPVLDSDGSFFLYSKLTVDKSRWQQGNVFSCSVMHEALHNHYTQKSLSLSPGK
chain 2: EVQLVQSGAEVKKPGSSVKVSCKASGYTITDSNIHWVRQAPGQSLEWIGYIYPYNGGTDYNQKFKNRATLTVDNPTNTAYMELSSLRSEDTAFYYCVNGNPWLAYWGQGTLVTVSSASTKGPSVFPLAPSSKSTSGGTAALGCLVKDYFPEPVTVSWNSGALTSGVHTFPAVLQSSGLYSLSSVVTVPSSSLGTQTYICNVNHKPSNTKVDKRVEPKSCDKTHTCPPCPAPEFEGGPSVFLFPPKPKDTLMISRTPEVTCVVVDVSHEDPEVKFNWYVDGVEVHNAKTKPREEQYNSTYRVVSVLTVLHQDWLNGKEYKCKVSNKALPASIEKTISKAKGQPREPQVCTLPPSREEMTKNQVSLSCAVKGFYPSDIAVEWESNGQPENNYKTTPPVLDSDGSFFLVSKLTVDKSRWQQGNVFSCSVMHEALHNRFTQKSLSLSPGK
chain 3: DIQLTQSPSTLSASVGDRVTITCRASESLDNYGIRFLTWFQQKPGKAPKLLMYAASNQGSGVPSRFSGSGSGTEFTLTISSLQPDDFATYYCQQTKEVPWSFGQGTKVEVKRTVAAPSVFIFPPSDEQLKSGTASVVCLLNNFYPREAKVQWKVDNALQSGNSQESVTEQDSKDSTYSLSSTLTLSKADYEKHKVYACEVTHQGLSSPVTKSFNRGEC
B3: the gMFI in assay [1] turned out to be 39500 gMFI; in assay [3] it was 33900 gMFI; in assay [4] it was 112000 gMFI; in assay [5], 232000 gMFI. In addition, the “Jurkat WT/KO (Fold)” value in assay [2] amounted to 10.5 fold; in assay [6], 12.5 fold. Further, the “% Positive” value in assay [4] stood at 99.7%; in assay [5], 99.8%.

B4: CD3 × CD33-BspAb96 (bispecific antibody)
chain 1: SYELTQPPSVSVSPGQTARITCSGDALPKKYAYWYQQKSGQAPVLVIYEDSKRPSGIPERFSGSSSGTMATLTISGAQVEDEADYYCYSTDSSGNHSWVFGCGTKLTVLGGGGSGGGGSGGGGSGGGGSEVQLVESGGGLVKPGGSLRLSCAASGFTFSSYSMNWVRQAPGKCLEWVSSVNSRGSYIYYADSVKGRFTISRDNAKDSLYLQMNSLRADDTAVYYCARDRRELLLDYWGQGTLVTVSSDKTHTCPPCPAPEFEGGPSVFLFPPKPKDTLMISRTPEVTCVVVDVSHEDPEVKFNWYVDGVEVHNAKTKPREEQYNSTYRVVSVLTVLHQDWLNGKEYKCKVSNKALPASIEKTISKAKGQPREPQVYTLPPCREEMTKNQVSLWCLVKGFYPSDIAVEWESNGQPENNYKTTPPVLDSDGSFFLYSKLTVDKSRWQQGNVFSCSVMHEALHNHYTQKSLSLSPGK
chain 2: EVQLVQSGAEVKKPGSSVKVSCKASGYTITDSNIHWVRQAPGQSLEWIGYIYPYNGGTDYNQKFKNRATLTVDNPTNTAYMELSSLRSEDTAFYYCVNGNPWLAYWGQGTLVTVSSASTKGPSVFPLAPSSKSTSGGTAALGCLVKDYFPEPVTVSWNSGALTSGVHTFPAVLQSSGLYSLSSVVTVPSSSLGTQTYICNVNHKPSNTKVDKRVEPKSCDKTHTCPPCPAPEFEGGPSVFLFPPKPKDTLMISRTPEVTCVVVDVSHEDPEVKFNWYVDGVEVHNAKTKPREEQYNSTYRVVSVLTVLHQDWLNGKEYKCKVSNKALPASIEKTISKAKGQPREPQVCTLPPSREEMTKNQVSLSCAVKGFYPSDIAVEWESNGQPENNYKTTPPVLDSDGSFFLVSKLTVDKSRWQQGNVFSCSVMHEALHNRFTQKSLSLSPGK
chain 3: DIQLTQSPSTLSASVGDRVTITCRASESLDNYGIRFLTWFQQKPGKAPKLLMYAASNQGSGVPSRFSGSGSGTEFTLTISSLQPDDFATYYCQQTKEVPWSFGQGTKVEVKRTVAAPSVFIFPPSDEQLKSGTASVVCLLNNFYPREAKVQWKVDNALQSGNSQESVTEQDSKDSTYSLSSTLTLSKADYEKHKVYACEVTHQGLSSPVTKSFNRGEC
Regarding B4, the gMFI in assay [1] is 7470 gMFI; in assay [3] it was 2370 gMFI; in assay [4], 3700 gMFI; in assay [5], 17900 gMFI. Further, the figures for the “Jurkat WT/KO (Fold)” value in assay [2] and in assay [6] were 1.1 fold and 3.5 fold, respectively. Further, the “% Positive” value stood at 8.2% in assay [4] and 95.8% in assay [5].
